# Experimental data as given in PMC4872106, “The evolutionary pathway from a biologically inactive polypeptide sequence to a folded, active structural mimic of DNA” (Nucleic Acids Research, 2016).
# T1: M.EcoKI (the M2S1 methyltransferase core of the EcoKI Type I RM enzyme) (E. coli, UniProt P08957 1-529; P05719 1-464)
# T1 construct: M subunit (HsdM) of the Type I restriction/modification enzyme EcoKI of E. coli; S subunit (HsdS) of the Type I restriction/modification enzyme EcoKI of E. coli; In the in vivo antimodification assay M.EcoKI is endogenous in E. coli NM1057; also called M2S1 complex; copies: 2 + 1
# T1 sequence 1: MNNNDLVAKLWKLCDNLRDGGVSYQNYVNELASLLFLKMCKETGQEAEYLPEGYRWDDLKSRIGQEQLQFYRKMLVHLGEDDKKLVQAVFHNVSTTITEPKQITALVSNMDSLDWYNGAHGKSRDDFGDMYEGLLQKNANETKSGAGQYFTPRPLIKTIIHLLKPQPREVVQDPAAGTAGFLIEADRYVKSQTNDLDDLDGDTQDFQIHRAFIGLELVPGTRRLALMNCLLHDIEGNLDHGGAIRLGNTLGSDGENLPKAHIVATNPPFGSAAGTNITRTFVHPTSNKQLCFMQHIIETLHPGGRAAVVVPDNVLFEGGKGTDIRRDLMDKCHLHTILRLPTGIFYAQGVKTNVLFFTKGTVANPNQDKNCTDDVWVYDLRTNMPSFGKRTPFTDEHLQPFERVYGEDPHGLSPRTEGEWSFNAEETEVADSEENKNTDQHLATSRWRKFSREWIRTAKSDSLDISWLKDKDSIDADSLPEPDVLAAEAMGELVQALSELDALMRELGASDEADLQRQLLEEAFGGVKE
# T1 sequence 2: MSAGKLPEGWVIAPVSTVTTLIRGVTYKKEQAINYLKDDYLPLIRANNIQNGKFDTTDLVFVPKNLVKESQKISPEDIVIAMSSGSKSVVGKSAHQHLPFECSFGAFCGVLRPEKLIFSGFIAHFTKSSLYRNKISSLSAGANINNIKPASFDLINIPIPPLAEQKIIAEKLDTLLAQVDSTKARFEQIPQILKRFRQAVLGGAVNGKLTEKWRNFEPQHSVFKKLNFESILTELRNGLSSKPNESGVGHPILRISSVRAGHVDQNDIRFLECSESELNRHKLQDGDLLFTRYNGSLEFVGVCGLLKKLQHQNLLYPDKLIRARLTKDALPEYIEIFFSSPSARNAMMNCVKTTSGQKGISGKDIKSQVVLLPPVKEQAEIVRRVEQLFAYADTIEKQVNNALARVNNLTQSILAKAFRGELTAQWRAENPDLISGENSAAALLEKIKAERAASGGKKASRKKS
# B1: Ocr (overcome classical restriction) from bacteriophage T7, wild type (natural protein, UniProt P03775 1-117, looked up)
# chain: MAMSNMTYNNVFDHAYEMLKENIRYDDIRDTDDLHDAIHMAADNAVPHYYADIFSVMASEGIDLEFEDSGLMPDTKDVIRILQARIYEQLTIDLWEDAEDLLNEYLEEVEEYEEDEE
# notes: Ocr, product of bacteriophage T7 gene 0.3; homodimer of a polypeptide of 116 amino acids (34 acidic and 6 basic residues per monomer); also called wild-type Ocr; gene 0.3 protein
# Tests used:
# [1] = target: T1, M.EcoKI (the M2S1 methyltransferase …); test: ITC; as described in ref. 15 but in 20 mM HEPES buffer, pH 7.0; heat of interaction plotted against the molar ratio of Ocr dimer to M.EcoKI; conditions: both partners purified
# [2] = target: EcoKI Type I restriction/modification enzyme (R2M2S1) (E. coli, UniProt P08956 1-1170; P08957 1-529; P05719 1-464); test: cell-based or functional assay
# Sequence of EcoKI Type I restriction/modification enzyme (R2M2S1) (P08956 whole entry, one chain of several): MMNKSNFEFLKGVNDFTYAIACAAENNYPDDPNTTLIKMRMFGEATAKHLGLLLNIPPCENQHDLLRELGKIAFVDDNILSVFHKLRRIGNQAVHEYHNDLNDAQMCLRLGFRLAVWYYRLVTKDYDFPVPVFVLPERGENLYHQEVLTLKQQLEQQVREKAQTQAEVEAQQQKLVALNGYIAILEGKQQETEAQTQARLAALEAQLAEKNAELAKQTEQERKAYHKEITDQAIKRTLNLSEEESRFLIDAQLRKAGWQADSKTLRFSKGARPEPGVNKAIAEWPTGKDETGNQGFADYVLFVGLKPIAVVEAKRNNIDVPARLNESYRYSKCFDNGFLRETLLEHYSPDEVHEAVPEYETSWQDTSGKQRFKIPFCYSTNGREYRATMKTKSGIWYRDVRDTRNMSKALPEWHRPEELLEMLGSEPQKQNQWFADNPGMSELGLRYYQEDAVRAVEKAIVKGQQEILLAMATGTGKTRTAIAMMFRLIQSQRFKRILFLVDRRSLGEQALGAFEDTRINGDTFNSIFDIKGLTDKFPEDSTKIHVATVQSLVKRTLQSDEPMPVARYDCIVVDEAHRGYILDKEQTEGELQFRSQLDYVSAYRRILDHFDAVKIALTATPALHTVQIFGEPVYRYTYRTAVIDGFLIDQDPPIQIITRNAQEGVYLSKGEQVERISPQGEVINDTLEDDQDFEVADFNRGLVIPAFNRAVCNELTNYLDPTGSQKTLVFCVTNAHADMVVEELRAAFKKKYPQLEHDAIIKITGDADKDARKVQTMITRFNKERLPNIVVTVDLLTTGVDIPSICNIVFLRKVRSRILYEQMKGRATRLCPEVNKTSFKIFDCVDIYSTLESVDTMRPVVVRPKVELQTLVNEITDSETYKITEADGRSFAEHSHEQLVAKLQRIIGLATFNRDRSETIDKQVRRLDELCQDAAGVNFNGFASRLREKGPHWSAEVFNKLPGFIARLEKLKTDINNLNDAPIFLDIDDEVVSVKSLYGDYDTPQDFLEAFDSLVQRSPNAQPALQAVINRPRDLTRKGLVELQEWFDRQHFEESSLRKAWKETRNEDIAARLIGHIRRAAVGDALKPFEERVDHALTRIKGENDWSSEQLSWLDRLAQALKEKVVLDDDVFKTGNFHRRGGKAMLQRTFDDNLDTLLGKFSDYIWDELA
# [3] = target: T1, M.EcoKI (the M2S1 methyltransferase …); test: cell-based or functional assay
binder,measurement,setting,value
B1,stoichiometry N,[1],1 Ocr dimer per M.EcoKI
same,"in vivo antirestriction: efficiency of plating of phage lambda v.o on E. coli NM1049(DE3) (r+m+, EcoKI) relative to NM1261(DE3) (r-m-), strains expressing Ocr (vector alone 5x10^-5)",[2],4 eop
same,in vivo antimodification: efficiency of plating on E. coli NM1041 (r+m+) relative to NM1057 (r-m+) of phage lambda v.o recovered from NM1057 expressing Ocr (vector alone 1),[3],0.00014 eop
